# Results reported in the supplement of paper PMC7125110.
# ± gives the standard error. Fewer inactive variants are shown than the library holds.
# B1: glmS ribozyme (parent)
# chain: AUAAAAGCGCCAGAACUACAGAAAUGUAGUUGACGAGGAGGAGGUUUAUCGAAUUUUCGGCGGAUGCCUCCAAA
# Experiments:
# Settings in all cases: with glucosamine-6-phosphate
# [1] = variants of: B1; assay: self-cleavage kobs at 40 uM GlcN6P; higher = faster cleavage; RNA array
# Outline: (§1)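 Barcoded ribozyme variants, transcribed in situ by E. coli RNA polymerase on sequenced MiSeq chips, were followed via a hybridised Cy3 probe at 37 °C. Glucosamine-6-phosphate ranged from 40 μM to 10 mM in HEPES/KCl/Mg(OAc)2 buffer. kobs came from decay fits to per-tile medians, and kcat and KM from weighted Michaelis–Menten fits.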
# [2] = variants of: B1; assay: self-cleavage kobs at 10000 uM GlcN6P; higher = faster cleavage; RNA array
# Outline: as §1
# [3] = variants of: B1; assay: self-cleavage kobs at 640 uM GlcN6P; higher = faster cleavage; RNA array
# Outline: as §1
# [4] = variants of: B1; assay: self-cleavage kobs at 2500 uM GlcN6P; higher = faster cleavage; RNA array
# Outline: as §1
# [5] = variants of: B1; assay: self-cleavage kobs at 160 uM GlcN6P; higher = faster cleavage; RNA array
# Outline: as §1
Variant,self-cleavage kobs at 40 uM GlcN6P [1] [s⁻¹],self-cleavage kobs at 10000 uM GlcN6P [2] [s⁻¹],self-cleavage kobs at 640 uM GlcN6P [3] [s⁻¹],self-cleavage kobs at 2500 uM GlcN6P [4] [s⁻¹],self-cleavage kobs at 160 uM GlcN6P [5] [s⁻¹]
AUAAAAGUGCCAGAACUACAGAAAUGUAGUUGACGAGGAGAAGGUUUAUCGAAUUUUCCGCGGAUGCCUCCAAA [C8U G41A G59C],< 1e-05,< 1e-05,–,–,–
AUAAAAGCGCCAGUACUACAGAAAUGUAGUUCACGAGGAGGAGGUUUAUAGAAUUUUCGGCGGAUGCGUCCAAA [A14U G32C C50A C68G],8.36e-05 ± 3e-05,7.34e-05 ± 2.2e-05,0.000278 ± 7.7e-05,0.000126 ± 6e-05,–
AUAAAAGCGCCAGAUCUACAGAAAUGUAGUUGACGAGGAGGAGGUUCAUCGAAUUUUCGGUGGAUGCCUCCAAA [A15U U47C C61U],< 1e-05,< 1e-05,–,–,–
AUAAAAGCGCCCGAACUACAGAAAUGUAGUUGACGAGCAGGUGGUUUAUCGAAUUUUCGGCGGAUGCCUCCAAA [A12C G38C A42U],< 1e-05,< 1e-05,–,–,–
AUAAAAGCGCCAGUACUACAGAAAUGUAGUUGACGAGGAGGAAGUUUAACGAAUUUUUGGCGGAUGCCUCCAAA [A14U G43A U49A C58U],< 1e-05,< 1e-05,–,–,–
AUAAAAGCGUCAGAACUACAGAAAUGUACUUGACAAGGAGGAGUUUUAUAGAAUCUUCGGCGGUUGCCUCCAAA [C10U G29C G35A G44U C50A U55C A64U],< 1e-05,< 1e-05,–,–,–
AUAAAAGAGCCAGAACUACAGAAAUGUAGUUGACGAGGAGGGGGUUUAUCGAAUUUUCGGCGGAUGCUUCCAAA [C8A A42G C68U],< 1e-05,< 1e-05,–,–,–
AUAAAAGCGGCAGAACUACAGAAAUGUAGUUGACGAGGAGGAGGUUGAUCGAAUUUUCGGCGGAUGCCUCCAAA [C10G U47G],< 1e-05,< 1e-05,–,–,–
AUAAAAGCGCCAUAAGUACAGAAAUGUAGUGGAUGAGGAGGAGGUUUAUCGAAUUUUCGGCGGAUGCCUCCAAA [G13U C16G U31G C34U],< 1e-05,–,–,–,–
AUAAAAGCGCCAGAACUACAGAAAUGUAGUUGACGCGGAGGAGGUUUAGCGAGUUUUCGGCGGAUGCCUCCAAA [A36C U49G A53G],4.33e-05 ± 1.4e-05,0.00107 ± 0.00018,–,–,–
AUAAAAGCGCCAGAACUACAGAAAUGUAAUUGGGGAGGAGGAGGUUUAUCGAAUUUUCGGCGGAUGUCUCCAAA [G29A A33G C34G C67U],< 1e-05,–,–,–,–
AUAAAAGCGCCAGAACUACAGAAAUGUAGUUGACGAGGAGAAGGUUUAUCGAAUUUUCGGCUGAUGGCUCCAAA [G41A G62U C67G],< 1e-05,–,–,–,–
AUAAAAGCGCCAGAACUACAGAAAUGUAGUUGACGAGGAGGAGAUUUAUCAAAUUUUCGGCGGAGGGCUCCAAA [G44A G51A U65G C67G],< 1e-05,< 1e-05,< 1e-05,< 1e-05,< 1e-05
AUAAAAGCGCCAGAACUACAGAAAUGUAGUUGACGAGGAGGAGGUUUAUGGAAUUUACGGCGUUUGCCUCCAAA [C50G U57A G63U A64U],7.9e-05 ± 2.7e-05,–,–,–,–
AUAAAAACGCCAGAACUACAGAAAUGUAGUUUACGAGGAGGAGGUUGAUUGAAUUUUCGGCGAAUGGCUCCAAA [G7A G32U U47G C50U G63A C67G],0.000556 ± 0.00014,0.000988 ± 0.00041,–,–,–
AUAAAAGCGCCAGAACUACAGAAAUGUAGUUGACGAGGAGGAGGUUUAUCGAAUUUUCGUCGGAUGGCUCCAAA [G60U C67G],< 1e-05,< 1e-05,< 1e-05,< 1e-05,< 1e-05
